Reference: patent publication US20250154231A1
Like-named read-outs stand apart in the source and are kept apart here.

Experiments:
Assay in all cases: cell-based or functional assay
[1] = target: SARS-CoV-2 spike (S) protein, synthetic variant "BA.4+all"
[2] = target: SARS-CoV-2 spike (S) protein, Omicron BA.2 + D339H (SARS-CoV-2) (UniProt P0DTC2)
[3] = target: SARS-CoV-2 spike (S) protein, Omicron BA.2 + G446S (SARS-CoV-2) (UniProt P0DTC2)
[4] = target: SARS-CoV-2 spike (S) protein, Omicron BA.2 + N460K (SARS-CoV-2) (UniProt P0DTC2)
[5] = target: SARS-CoV-2 spike (S) protein, Omicron BA.2 + N460K (SARS-CoV-2) (UniProt P0DTC2); remark: listed apart in the source
[6] = target: SARS-CoV-2 Omicron BA.1.1 spike (S) protein, pseudovirus construct (SARS-CoV-2) (UniProt P0DTC2)
[7] = target: SARS-CoV-2 Omicron BA.1 spike (S) protein, pseudovirus construct (SARS-CoV-2) (UniProt P0DTC2)
[8] = target: SARS-CoV-2 Omicron BA.3 spike (S) protein, pseudovirus construct (SARS-CoV-2) (UniProt P0DTC2)
[9] = target: SARS-CoV-2 Victoria spike (S) protein (SARS-CoV-2) (UniProt P0DTC2)
[10] = target: SARS-CoV-2 Omicron BA.2 spike (S) protein, pseudovirus construct (SARS-CoV-2) (UniProt P0DTC2)

Sequence of Omi-32 (antibody) (VH): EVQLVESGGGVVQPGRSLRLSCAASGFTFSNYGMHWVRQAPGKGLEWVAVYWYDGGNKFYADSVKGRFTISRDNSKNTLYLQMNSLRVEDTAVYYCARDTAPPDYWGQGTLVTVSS
Sequence of Omi-32 (antibody) (VL): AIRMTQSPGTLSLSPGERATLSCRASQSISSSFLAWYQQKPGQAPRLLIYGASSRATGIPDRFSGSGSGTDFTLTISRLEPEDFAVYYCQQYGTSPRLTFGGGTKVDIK
Sequence of Omi-12 (antibody) (VH): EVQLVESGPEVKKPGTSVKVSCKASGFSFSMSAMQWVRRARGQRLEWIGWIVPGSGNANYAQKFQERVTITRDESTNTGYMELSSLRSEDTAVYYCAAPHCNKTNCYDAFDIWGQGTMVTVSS
Sequence of Omi-12 (antibody) (VL): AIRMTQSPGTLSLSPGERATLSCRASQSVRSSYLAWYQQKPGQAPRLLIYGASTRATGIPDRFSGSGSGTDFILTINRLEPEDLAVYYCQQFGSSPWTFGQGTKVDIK
Sequence of Omi-29 (antibody) (VH): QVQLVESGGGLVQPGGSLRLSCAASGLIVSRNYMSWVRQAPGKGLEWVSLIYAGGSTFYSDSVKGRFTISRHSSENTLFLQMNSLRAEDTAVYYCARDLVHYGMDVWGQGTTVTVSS
Sequence of Omi-29 (antibody) (VL): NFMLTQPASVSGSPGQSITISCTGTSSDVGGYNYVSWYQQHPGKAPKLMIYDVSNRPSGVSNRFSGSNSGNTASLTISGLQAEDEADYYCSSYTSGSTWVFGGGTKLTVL
Sequence of Omi-42 (antibody) (VH): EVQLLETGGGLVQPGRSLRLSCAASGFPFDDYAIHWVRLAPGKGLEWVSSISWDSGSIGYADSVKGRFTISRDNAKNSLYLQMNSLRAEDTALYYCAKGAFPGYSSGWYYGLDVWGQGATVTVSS
Sequence of Omi-42 (antibody) (VL): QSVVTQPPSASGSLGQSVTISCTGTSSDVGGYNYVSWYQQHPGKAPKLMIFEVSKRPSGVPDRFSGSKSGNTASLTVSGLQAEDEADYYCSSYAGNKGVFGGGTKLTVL
Sequence of Omi-18 (antibody) (VH): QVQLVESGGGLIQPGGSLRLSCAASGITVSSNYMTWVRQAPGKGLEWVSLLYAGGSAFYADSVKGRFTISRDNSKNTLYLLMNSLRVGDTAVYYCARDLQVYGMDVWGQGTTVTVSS
Sequence of Omi-18 (antibody) (VL): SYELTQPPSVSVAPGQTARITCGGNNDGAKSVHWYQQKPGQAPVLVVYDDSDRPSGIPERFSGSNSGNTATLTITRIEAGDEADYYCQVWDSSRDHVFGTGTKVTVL
Sequence of AZD8895 (antibody) (VH): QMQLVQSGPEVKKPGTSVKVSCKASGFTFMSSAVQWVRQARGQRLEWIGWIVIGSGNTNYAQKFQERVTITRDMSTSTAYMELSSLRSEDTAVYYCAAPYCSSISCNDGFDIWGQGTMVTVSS
Sequence of AZD8895 (antibody) (VL): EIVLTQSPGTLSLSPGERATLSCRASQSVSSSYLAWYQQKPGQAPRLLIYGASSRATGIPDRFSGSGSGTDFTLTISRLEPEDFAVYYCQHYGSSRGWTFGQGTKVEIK

LY-CoV1404 (bebtelovimab) (antibody)
IC50, pseudoviral neutralization [1]: > 10 µg/mL

Omi-29 (antibody)
IC50, pseudoviral neutralization [1]: > 10 µg/mL | pseudovirus neutralisation IC50 [2]: 0.018 µg/mL | pseudovirus neutralisation IC50 [3]: 0.024 µg/mL | pseudovirus neutralisation IC50 [4]: > 10 µg/mL | pseudovirus neutralisation IC50 [5]: > 10 µg/mL

Omi-03 (antibody)
IC50, pseudoviral neutralization [1]: 0.432 µg/mL | pseudovirus neutralisation IC50 [2]: 0.006 µg/mL | pseudovirus neutralisation IC50 [3]: 0.005 µg/mL | pseudovirus neutralisation IC50 [4]: 0.401 µg/mL | pseudovirus neutralisation IC50 [5]: 0.401 µg/mL

AZD1061 (antibody)
IC50, pseudoviral neutralization [1]: > 10 µg/mL

AZD8895 (antibody)
IC50, pseudoviral neutralization [1]: > 10 µg/mL

REGN10987 (antibody)
IC50, pseudoviral neutralization [1]: > 10 µg/mL

Ly-CoV555 (antibody)
IC50, pseudoviral neutralization [1]: > 10 µg/mL

S309 (antibody)
IC50, pseudoviral neutralization [1]: 0.584 µg/mL

Omi-18 (antibody)
IC50, pseudoviral neutralization [1]: 3.61 µg/mL | pseudovirus neutralisation IC50 [2]: 0.003 µg/mL | pseudovirus neutralisation IC50 [3]: 0.003 µg/mL | pseudovirus neutralisation IC50 [4]: 0.014 µg/mL | pseudovirus neutralisation IC50 [5]: 0.014 µg/mL

Omi-32 (antibody)
IC50, pseudoviral neutralization [1]: > 10 µg/mL | pseudovirus neutralisation IC50 [2]: 0.683 µg/mL | pseudovirus neutralisation IC50 [3]: 0.33 µg/mL | pseudovirus neutralisation IC50 [4]: 2.34 µg/mL | pseudovirus neutralisation IC50 [5]: 2.34 µg/mL

Omi-12 (antibody)
IC50, pseudoviral neutralization [1]: > 10 µg/mL | pseudovirus neutralisation IC50 [2]: 0.003 µg/mL | pseudovirus neutralisation IC50 [3]: 0.003 µg/mL | pseudovirus neutralisation IC50 [4]: 0.011 µg/mL | pseudovirus neutralisation IC50 [5]: 0.011 µg/mL

ADG20 (antibody)
IC50, pseudoviral neutralization [1]: > 10 µg/mL

AZD7442 (a combination of AZD8895 and AZD1061)
IC50, pseudoviral neutralization [1]: > 10 µg/mL

Known Antibody E (AZD7442)
IC50 (ug/ml), pseudovirus [6]: 0.806 µg/mL | IC50 (ug/ml), pseudovirus [7]: 0.232 µg/mL | IC50 (ug/ml), pseudovirus [8]: 0.065 µg/mL | IC50 (ug/ml), pseudovirus [9]: 0.001 µg/mL | IC50 (ug/ml), pseudovirus [10]: 0.008 µg/mL

Omi-42 (antibody)
IC50, pseudoviral neutralization [1]: 0.008 µg/mL | pseudovirus neutralisation IC50 [2]: 0.011 µg/mL | pseudovirus neutralisation IC50 [3]: 0.016 µg/mL | pseudovirus neutralisation IC50 [4]: 0.007 µg/mL | pseudovirus neutralisation IC50 [5]: 0.007 µg/mL

REGN10933 (antibody)
IC50, pseudoviral neutralization [1]: > 10 µg/mL

Ly-CoV16 (antibody)
IC50, pseudoviral neutralization [1]: > 10 µg/mL
